This data set in a line: total protein half-life in vivo (active degradation + dilution); higher = more stable protein.
Where [1] appears, read: E. coli NCM3722 delta-clpP delta-lon delta-hslV, growth: N-lim chemostat, doubling time 6 h.
Setting [2] is: E. coli NCM3722 delta-clpP, growth: N-lim chemostat, doubling time 6 h.
Setting [3] is: E. coli NCM3722 delta-hslV, growth: N-lim chemostat, doubling time 6 h.
The mark [4] stands for this setting: E. coli NCM3722 delta-lon, growth: N-lim chemostat, doubling time 6 h.
Setting [5] is: E. coli NCM3722 delta-smpB, growth: N-lim chemostat, doubling time 6 h.
Where [6] appears, read: wild type E. coli NCM3722, growth: C-lim chemostat, doubling time 3 h.
Setting [7] is: wild type E. coli NCM3722, growth: C-lim chemostat, doubling time 6 h.
Where [8] appears, read: wild type E. coli NCM3722, growth: N-lim chemostat, doubling time 6 h.
Setting [9] is: wild type E. coli NCM3722, growth: N-lim chemostat, doubling time 12 h.
Where [10] appears, read: wild type E. coli NCM3722, growth: P-lim chemostat, doubling time 6 h.
The mark [11] stands for this setting: wild type E. coli NCM3722, growth: P-lim chemostat, doubling time 12 h.
Setting [12] is: wild type E. coli NCM3722, growth: C-lim chemostat, doubling time 12 h.

± gives the standard deviation of the averaged measurements. Bounds are passed on as bounds.

Consider “MANVEIYTKETCPYCHRAKALLSSKGVSFQELPIDGNAAKREEMIKRSGRTTVPQIFIDAQHIGGCDDLYALDARGGLDPLLK [P0AC62]”, for which the “total protein half-life in vivo” value by setting is: under setting [1], 6.58 h; under setting [2], 5.58 ± 0.71 h; under setting [3], 4.93 ± 0.091 h; under setting [4], 5.33 ± 0.32 h; under setting [5], 5.71 ± 1.9 h; under setting [6], 2.89 ± 0.5 h. Also, the “total protein half-life in vivo” value under setting [7] was determined as 5.23 ± 1 h; the “total protein half-life in vivo” value under setting [8] was found to be 4.68 h; the “total protein half-life in vivo” value under setting [9] came to 9.44 ± 2.5 h; the “total protein half-life in vivo” value under setting [10] came out at 5.35 ± 0.39 h; the “total protein half-life in vivo” value under setting [11] is 12.6 ± 1.1 h.
On to P0AAI3, for which the “total protein half-life in vivo” value under setting [1] came out at 4.9 ± 0.24 h; the “total protein half-life in vivo” value under setting [2] was determined as 5.097 ± 0.043 h; the “total protein half-life in vivo” value under setting [3] was found to be 4.76 ± 0.23 h; the “total protein half-life in vivo” value under setting [4] worked out at 4.88 ± 0.19 h; the “total protein half-life in vivo” value under setting [5] came out at 4.46 ± 0.14 h; the “total protein half-life in vivo” value under setting [6] worked out at 3.11 ± 0.11 h. Besides, the “total protein half-life in vivo” value worked out at 5.51 ± 0.52 h under setting [7]; 10.8 ± 0.55 h under setting [12]; 4.53 ± 0.27 h under setting [8]; 8.44 ± 0.27 h under setting [9]; 6.15 ± 0.37 h under setting [10]; 10.2 ± 0.18 h under setting [11].
In the case of “MRRLLSVAPVLLWLITPLAFAQLPGITSQPLPGGGQSWSLPVQTLVFITSLTFIPAILLMMTSFTRIIIVFGLLRNALGTPSAPPNQVLLGLALFLTFFIMSPVIDKIYVDAYQPFSEEKISMQEALEKGAQPLREFMLRQTREADLGLFARLANTGPLQGPEAVPMRILLPAYVTSELKTAFQIGFTIFIPFLIIDLVIASVLMALGMMMVPPATIALPFKLMLFVLVDGWQLLVGSLAQSFYS [P0AC05]”, the “total protein half-life in vivo” value is, setting by setting: under setting [6], 2.76 h; under setting [7], 6.05 h; under setting [12], 9.42 h.
Consider “MATLKDIAIEAGVSLATVSRVLNDDPTLNVKEETKHRILEIAEKLEYKTSSARKLQTGAVNQHHILAIYSYQQELEINDPYYLAIRHGIETQCEKLGIELTNCYEHSGLPDIKNVTGILIVGKPTPALRAAASALTDNICFIDFHEPGSGYDAVDIDLARISKEIIDFYINQGVNRIGFIGGEDEPGKADIREVAFAEYGRLKQVVREEDIWRGGFSSSSGYELAKQMLAREDYPKALFVASDSIAIGVLRAIHERGLNIPQDISLISVNDIPTARFTFPPLSTVRIHSEMMGSQGVNLVYEKARDGRALPLLVFVPSKLKLRGTTR”, for which the “total protein half-life in vivo” value is, setting by setting: under setting [1], 5.54 ± 0.078 h; under setting [2], 6.95 ± 1.2 h; under setting [3], 5.31 ± 0.62 h; under setting [4], 5.72 ± 0.54 h; under setting [5], 5.35 ± 0.066 h; under setting [6], 2.89 ± 0.27 h. Moreover, the “total protein half-life in vivo” value is, setting by setting: under setting [7], 5.94 ± 0.29 h; under setting [12], 9.8 ± 0.15 h; under setting [8], 5.07 ± 0.53 h; under setting [10], 6.01 ± 0.76 h; under setting [11], 13.4 ± 2.6 h.
For “MSAQVSLELHHRISQFLFHEASLLDDWKFRDWLAQLDEEIRYTMRTTVNAQTRDRRKGVQPPTTWIFNDTKDQLERRIARLETGMAWAEEPPSRTRHLISNCQISETDIPNVFAVRVNYLLYRAQKERDETFYVGTRFDKVRRLEDDNWRLLERDIVLDQAVITSHNLSVLF”, the “total protein half-life in vivo” value was above 8 h under setting [1]; 2.05 h under setting [6]; 5.02 h under setting [7]; 8.73 h under setting [12]; 5.1 ± 0.36 h under setting [10]; 9.68 ± 0.98 h under setting [11].
Turning to “MPLVIVAIGVILLLLLMIRFKMNGFIALVLVALAVGLMQGMPLDKVIGSIKAGVGGTLGSLALIMGFGAMLGKMLADCGGAQRIATTLIAKFGKKHIQWAVVLTGFTVGFALFYEVGFVLMLPLVFTIAASANIPLLYVGVPMAAALSVTHGFLPPHPGPTAIATIFNADMGKTLLYGTILAIPTVILAGPVYARVLKGIDKPIPEGLYSAKTFSEEEMPSFGVSVWTSLVPVVLMAMRAIAEMILPKGHAFLPVAEFLGDPVMATLIAVLIAMFTFGLNRGRSMDQINDTLVSSIKIIAMMLLIIGGGGAFKQVLVDSGVDKYIASMMHETNISPLLMAWSIAAVLRIALGSATVAAITAGGIAAPLIATTGVSPELMVIAVGSGSVIFSHVNDPGFWLFKEYFNLTIGETIKSWSMLETIISVCGLVGCLLLNMVI”, the “total protein half-life in vivo” value is, setting by setting: under setting [2], 6.71 ± 1 h; under setting [3], 5.83 ± 0.38 h; under setting [4], 6.2 ± 0.55 h; under setting [5], 6.06 ± 0.3 h; under setting [12], 10 ± 0.67 h; under setting [8], 5.75 h. For the same substance, under setting [9], the “total protein half-life in vivo” value worked out at 13 h.
Regarding “MSHPALTQLRALRYCKEIPALDPQLLDWLLLEDSMTKRFEQQGKTVSVTMIREGFVEQNEIPEELPLLPKESRYWLREILLCADGEPWLAGRTVVPVSTLSGPELALQKLGKTPLGRYLFTSSTLTRDFIEIGRDAGLWGRRSRLRLSGKPLLLTELFLPASPLY”, the “total protein half-life in vivo” value stood at 4.9 ± 0.4 h under setting [1]; 2.28 ± 0.017 h under setting [2]; 3.04 ± 0.035 h under setting [3]; 3.5 ± 0.31 h under setting [4]; 2.14 ± 0.061 h under setting [5]; 2.41 ± 0.13 h under setting [6]. Also, the “total protein half-life in vivo” value was found to be 4.27 ± 0.27 h under setting [7]; 7.06 ± 0.53 h under setting [12]; 3.15 ± 0.3 h under setting [8]; 4.66 ± 0.034 h under setting [9]; 4.77 ± 0.55 h under setting [10]; 8.85 ± 0.47 h under setting [11].
With “MRRLRFSPRSSFARTLLLIVTLLFASLVTTYLVVLNFAILPSLQQFNKVLAYEVRMLMTDKLQLEDGTQLVVPPAFRREIYRELGISLYSNEAAEEAGLRWAQHYEFLSHQMAQQLGGPTEVRVEVNKSSPVVWLKTWLSPNIWVRVPLTEIHQGDFSPLFRYTLAIMLLAIGGAWLFIRIQNRPLVDLEHAALQVGKGIIPPPLREYGASEVRSVTRAFNHMAAGVKQLADDRTLLMAGVSHDLRTPLTRIRLATEMMSEQDGYLAESINKDIEECNAIIEQFIDYLRTGQEMPMEMADLNAVLGEVIAAESGYEREIETALYPGSIEVKMHPLSIKRAVANMVVNAARYGNGWIKVSSGTEPNRAWFQVEDDGPGIAPEQRKHLFQPFVRGDSARTISGTGLGLAIVQRIVDNHNGMLELGTSERGGLSIRAWLPVPVTRAQGTTKEG [P0AEJ4]”, the “total protein half-life in vivo” value reads like this: under setting [1], 6.372 ± 0.049 h; under setting [2], 7.33 ± 0.82 h; under setting [3], 6.19 ± 0.26 h; under setting [4], 6.19 ± 0.32 h; under setting [5], 6.14 ± 0.39 h; under setting [6], 3.2 ± 0.14 h. Also, the “total protein half-life in vivo” value is, setting by setting: under setting [7], 6.16 ± 0.14 h; under setting [8], 6.35 ± 0.27 h; under setting [9], 13.1 ± 0.43 h; under setting [10], 6.87 ± 0.93 h; under setting [11], 14.12 ± 0.043 h.

For the origin of these results see the supplement of paper PMC11246515.
